From article PMC9041927, “Aptamer based surface plasma resonance assay for direct detection of neuron specific enolase and progastrin-releasing peptide (31-98)†”

Legend:
[1] = molecular target: T1, progastrin-releasing peptide (31-98) (ProGRP31-98) (UniProt P07492 54-121); test: SPR; 2 mM MgCl2; kon 8.64e3 (printed Ms-1), koff 1.321e-3 s-1; SPR (Biacore X100, SA chip); 1x PBS pH 7.5, 0.1% Tween 20, 5 mM MgCl2 (NSE) or 2 mM MgCl2 (ProGRP31-98); temperature not stated; settings: protein: commercial; label: 5' biotin-TEG
T1 sequence: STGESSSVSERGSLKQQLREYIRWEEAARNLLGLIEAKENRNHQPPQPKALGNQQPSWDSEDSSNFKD

[2] = molecular target: T2, neuron specific enolase (NSE) (UniProt P09104 2-434); test: SPR; 5 mM MgCl2; kon 1.21e4 (printed Ms-1), koff 1.004e-3 s-1; SPR (Biacore X100, SA chip); 1x PBS pH 7.5, 0.1% Tween 20, 5 mM MgCl2 (NSE) or 2 mM MgCl2 (ProGRP31-98); temperature not stated; settings: protein: recombinant; chain copies: 2; label: 5' biotin-TEG
T2 sequence (P09104 2-434): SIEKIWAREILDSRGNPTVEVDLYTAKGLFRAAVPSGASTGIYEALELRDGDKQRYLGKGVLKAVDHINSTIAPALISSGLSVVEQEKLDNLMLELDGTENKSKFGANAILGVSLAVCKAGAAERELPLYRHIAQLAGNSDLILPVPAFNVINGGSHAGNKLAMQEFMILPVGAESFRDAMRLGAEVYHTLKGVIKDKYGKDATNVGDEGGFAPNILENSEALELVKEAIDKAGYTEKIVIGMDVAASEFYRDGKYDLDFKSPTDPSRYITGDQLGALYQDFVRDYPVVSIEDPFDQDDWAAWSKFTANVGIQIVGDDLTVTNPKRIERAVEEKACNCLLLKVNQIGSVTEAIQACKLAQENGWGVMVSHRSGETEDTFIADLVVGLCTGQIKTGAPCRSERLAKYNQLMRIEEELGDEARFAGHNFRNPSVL

[3] = molecular target: T2, neuron specific enolase (NSE); test: SPR; NSE 125 nM to 2 uM; SPR (Biacore X100, SA chip); 1x PBS pH 7.5, 0.1% Tween 20, 5 mM MgCl2 (NSE) or 2 mM MgCl2 (ProGRP31-98); temperature not stated; settings: protein: recombinant; chain copies: 2; label: 5' biotin-TEG

Binder: CATGCGGAGTAGATTCGAGCCCAGATAGTCCCTGGTTATTTCCTTAGG (ssDNA) [ProGRP-48-5BioTEG]
- Kd [1]: 153 nM

Binder: TCACACACGGACCTCTCCTACATTAATTGCGCATTTCGTT (ssDNA) [NSE-Apt5-5BioTEG]
- Kd [2]: ~83 nM

Binder: TCAGGTGCAGTTCTCGACTCGGTCTTGATGTGGGT (ssDNA) [DNA control]
- binding result [3]: no binding
